Earlier results on 1 substance are cited in paper PMC6133022.

This data set addresses alpha-bungarotoxin (Bungarus multicinctus) (UniProt P60615).
Chain of UniProt P60615 (P60615 22-95): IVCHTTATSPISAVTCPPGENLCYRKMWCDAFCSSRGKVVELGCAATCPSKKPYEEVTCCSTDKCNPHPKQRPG

What is called Kd is a measure of binding affinity in units of concentration. In the case of alpha7-nAChR (from UniProt P36544), the Kd is 0.094 nM.
